Assays:
[1] = target: HA-tagged IRF3 (overexpressed in HEK293 cells) (UniProt Q14653)
[2] = target: HA-tagged MITA (overexpressed in HEK293 cells) (UniProt Q86WV6)
[3] = target: HA-tagged RIG-I (overexpressed in HEK293 cells) (UniProt O95786)
[4] = target: HA-tagged TBK1 (overexpressed in HEK293 cells) (UniProt Q9UHD2)
[5] = target: HA-tagged VISA (overexpressed in HEK293 cells) (UniProt Q7Z434)
[6] = target: HA-tagged cGAS (overexpressed in HEK293 cells) (UniProt Q8N884)
IRF3-Y/F = IRF3-Y/F (UniProt Q14653)
MITA-Y/F = MITA-Y/F (UniProt Q86WV6)
VISA-6YF = VISA-6YF (UniProt Q7Z434)
IRF3 (endogenous, MLFs) = IRF3 (endogenous, MLFs) (UniProt P70671)
[7] = target: MITA/STING (endogenous, MLFs) (UniProt Q3TBT3)
RIG-I (endogenous, MLFs) = RIG-I (endogenous, MLFs) (UniProt Q6Q899)
TBK1 (endogenous, MLFs) = TBK1 (endogenous, MLFs) (UniProt Q9WUN2)
[8] = target: VISA/MAVS (endogenous, MLFs) (UniProt Q8VCF0)
Chain of VISA/MAVS (endogenous, MLFs) (Q8VCF0 whole entry): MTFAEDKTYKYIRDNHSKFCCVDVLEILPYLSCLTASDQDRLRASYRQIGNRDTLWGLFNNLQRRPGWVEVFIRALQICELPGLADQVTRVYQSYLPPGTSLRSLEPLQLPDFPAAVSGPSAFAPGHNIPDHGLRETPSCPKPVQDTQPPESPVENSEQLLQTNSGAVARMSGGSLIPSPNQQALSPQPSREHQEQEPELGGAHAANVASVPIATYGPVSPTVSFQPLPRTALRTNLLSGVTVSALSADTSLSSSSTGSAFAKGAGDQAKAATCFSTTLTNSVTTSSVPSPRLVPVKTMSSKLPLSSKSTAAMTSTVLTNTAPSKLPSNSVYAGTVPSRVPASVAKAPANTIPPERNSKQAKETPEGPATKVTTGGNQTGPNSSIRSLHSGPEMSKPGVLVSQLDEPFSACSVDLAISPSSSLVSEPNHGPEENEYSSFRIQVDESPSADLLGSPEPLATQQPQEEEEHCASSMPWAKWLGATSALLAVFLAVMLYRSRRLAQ

Chain of HA-tagged IRF3 (overexpressed in HEK293 cells) (Q14653 whole entry): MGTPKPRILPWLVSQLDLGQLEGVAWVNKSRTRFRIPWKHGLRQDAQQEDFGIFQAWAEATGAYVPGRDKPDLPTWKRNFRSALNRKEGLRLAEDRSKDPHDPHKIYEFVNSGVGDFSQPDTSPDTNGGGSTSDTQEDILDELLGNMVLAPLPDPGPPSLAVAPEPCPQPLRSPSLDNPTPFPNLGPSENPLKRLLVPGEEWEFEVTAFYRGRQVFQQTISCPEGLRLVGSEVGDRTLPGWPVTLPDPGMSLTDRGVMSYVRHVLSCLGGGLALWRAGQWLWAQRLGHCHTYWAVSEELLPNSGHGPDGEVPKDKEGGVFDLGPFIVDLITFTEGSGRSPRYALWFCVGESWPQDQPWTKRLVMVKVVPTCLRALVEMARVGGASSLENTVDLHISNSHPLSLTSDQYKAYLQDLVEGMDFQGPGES
Chain of TBK1 (endogenous, MLFs) (Q9WUN2 whole entry): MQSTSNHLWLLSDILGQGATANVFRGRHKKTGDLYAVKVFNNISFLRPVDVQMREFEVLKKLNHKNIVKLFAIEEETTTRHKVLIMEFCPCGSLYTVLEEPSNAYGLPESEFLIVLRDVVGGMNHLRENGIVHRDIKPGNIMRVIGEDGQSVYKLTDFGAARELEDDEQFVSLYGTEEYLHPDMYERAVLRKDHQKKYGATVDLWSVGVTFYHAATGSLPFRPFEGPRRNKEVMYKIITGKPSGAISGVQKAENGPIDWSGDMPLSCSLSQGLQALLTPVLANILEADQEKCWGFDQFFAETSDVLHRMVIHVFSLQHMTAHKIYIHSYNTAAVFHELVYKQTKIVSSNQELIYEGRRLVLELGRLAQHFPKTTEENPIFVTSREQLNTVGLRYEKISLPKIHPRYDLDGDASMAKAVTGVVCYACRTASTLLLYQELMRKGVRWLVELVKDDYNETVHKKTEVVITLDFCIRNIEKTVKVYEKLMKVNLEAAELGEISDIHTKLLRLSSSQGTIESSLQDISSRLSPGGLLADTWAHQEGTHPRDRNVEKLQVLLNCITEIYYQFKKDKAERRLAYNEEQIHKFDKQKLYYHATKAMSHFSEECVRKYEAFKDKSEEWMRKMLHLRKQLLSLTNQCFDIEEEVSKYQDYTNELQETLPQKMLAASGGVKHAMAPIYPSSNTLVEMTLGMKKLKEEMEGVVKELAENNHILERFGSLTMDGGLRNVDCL
Chain of HA-tagged VISA (overexpressed in HEK293 cells) (Q7Z434 whole entry): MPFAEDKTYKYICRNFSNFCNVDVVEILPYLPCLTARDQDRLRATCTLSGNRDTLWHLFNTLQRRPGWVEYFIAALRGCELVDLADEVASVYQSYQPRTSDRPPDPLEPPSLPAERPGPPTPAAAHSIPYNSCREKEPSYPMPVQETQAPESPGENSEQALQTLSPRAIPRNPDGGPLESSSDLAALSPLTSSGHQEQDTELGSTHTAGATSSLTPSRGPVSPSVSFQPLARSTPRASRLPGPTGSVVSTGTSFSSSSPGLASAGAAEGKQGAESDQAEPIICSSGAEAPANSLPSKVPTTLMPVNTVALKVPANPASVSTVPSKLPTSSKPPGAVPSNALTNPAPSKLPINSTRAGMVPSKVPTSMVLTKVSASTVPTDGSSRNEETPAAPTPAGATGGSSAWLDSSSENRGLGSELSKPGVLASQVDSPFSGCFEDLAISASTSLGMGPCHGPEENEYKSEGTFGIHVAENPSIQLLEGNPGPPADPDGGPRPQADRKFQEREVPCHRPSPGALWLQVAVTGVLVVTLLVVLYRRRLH
Chain of HA-tagged MITA (overexpressed in HEK293 cells) (Q86WV6 whole entry): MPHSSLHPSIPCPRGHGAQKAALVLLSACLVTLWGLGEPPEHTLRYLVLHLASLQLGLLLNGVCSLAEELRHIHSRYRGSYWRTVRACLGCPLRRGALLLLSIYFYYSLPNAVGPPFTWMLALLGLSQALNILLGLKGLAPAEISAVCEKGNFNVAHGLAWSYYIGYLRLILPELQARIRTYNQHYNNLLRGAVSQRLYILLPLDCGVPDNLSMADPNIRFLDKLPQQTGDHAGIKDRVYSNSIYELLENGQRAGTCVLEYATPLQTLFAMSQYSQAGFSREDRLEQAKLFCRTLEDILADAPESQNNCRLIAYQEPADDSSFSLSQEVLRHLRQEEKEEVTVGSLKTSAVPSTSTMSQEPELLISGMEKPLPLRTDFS
Chain of MITA-Y/F (Q86WV6 whole entry Y245F): as the sequence (Q86WV6 whole entry) above, with Y245F counted along it
Chain of VISA-6YF (Q7Z434 other isoform, or with tags, fused parts or gaps): as the sequence (Q7Z434 whole entry) above, with Y9F, Y92F, Y95F, Y130F, Y140F, Y460F counted along it
Chain of HA-tagged RIG-I (overexpressed in HEK293 cells) (O95786 whole entry): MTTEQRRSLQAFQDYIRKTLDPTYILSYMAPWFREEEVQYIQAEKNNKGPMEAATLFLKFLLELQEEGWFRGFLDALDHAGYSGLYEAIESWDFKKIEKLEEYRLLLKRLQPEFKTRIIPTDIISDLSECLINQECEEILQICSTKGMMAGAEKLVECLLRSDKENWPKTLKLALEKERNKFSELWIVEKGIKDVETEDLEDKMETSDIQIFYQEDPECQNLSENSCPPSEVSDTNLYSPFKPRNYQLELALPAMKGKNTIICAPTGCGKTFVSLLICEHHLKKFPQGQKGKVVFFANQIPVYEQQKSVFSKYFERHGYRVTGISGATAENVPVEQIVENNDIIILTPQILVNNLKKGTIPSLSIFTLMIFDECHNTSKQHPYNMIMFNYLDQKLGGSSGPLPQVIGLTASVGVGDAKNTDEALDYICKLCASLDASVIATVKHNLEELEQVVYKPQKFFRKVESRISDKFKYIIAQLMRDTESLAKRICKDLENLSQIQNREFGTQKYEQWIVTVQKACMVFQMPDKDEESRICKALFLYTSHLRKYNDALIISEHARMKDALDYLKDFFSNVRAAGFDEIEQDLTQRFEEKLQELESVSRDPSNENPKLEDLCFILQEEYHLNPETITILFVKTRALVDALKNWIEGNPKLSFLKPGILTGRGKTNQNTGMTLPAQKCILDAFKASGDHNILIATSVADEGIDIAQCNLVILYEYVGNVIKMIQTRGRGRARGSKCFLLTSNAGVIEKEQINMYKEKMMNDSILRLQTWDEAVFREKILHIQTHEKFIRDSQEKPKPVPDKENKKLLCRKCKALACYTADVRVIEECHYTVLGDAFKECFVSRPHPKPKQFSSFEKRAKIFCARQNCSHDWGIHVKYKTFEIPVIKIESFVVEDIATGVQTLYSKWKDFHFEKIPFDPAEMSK
Chain of HA-tagged cGAS (overexpressed in HEK293 cells) (Q8N884 whole entry): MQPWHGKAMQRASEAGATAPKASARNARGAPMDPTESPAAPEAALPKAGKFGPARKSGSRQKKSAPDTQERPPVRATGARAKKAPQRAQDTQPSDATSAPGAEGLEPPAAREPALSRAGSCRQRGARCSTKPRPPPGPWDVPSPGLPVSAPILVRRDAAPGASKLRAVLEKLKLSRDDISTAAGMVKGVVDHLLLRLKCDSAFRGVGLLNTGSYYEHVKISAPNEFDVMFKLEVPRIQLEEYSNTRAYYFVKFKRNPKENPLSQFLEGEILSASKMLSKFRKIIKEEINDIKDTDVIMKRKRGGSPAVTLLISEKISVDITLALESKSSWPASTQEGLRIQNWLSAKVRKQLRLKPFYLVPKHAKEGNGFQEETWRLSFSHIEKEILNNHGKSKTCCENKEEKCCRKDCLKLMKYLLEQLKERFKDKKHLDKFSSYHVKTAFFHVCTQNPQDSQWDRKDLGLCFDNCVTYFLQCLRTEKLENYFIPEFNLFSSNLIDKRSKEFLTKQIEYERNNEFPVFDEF
Chain of MITA/STING (endogenous, MLFs) (Q3TBT3 whole entry): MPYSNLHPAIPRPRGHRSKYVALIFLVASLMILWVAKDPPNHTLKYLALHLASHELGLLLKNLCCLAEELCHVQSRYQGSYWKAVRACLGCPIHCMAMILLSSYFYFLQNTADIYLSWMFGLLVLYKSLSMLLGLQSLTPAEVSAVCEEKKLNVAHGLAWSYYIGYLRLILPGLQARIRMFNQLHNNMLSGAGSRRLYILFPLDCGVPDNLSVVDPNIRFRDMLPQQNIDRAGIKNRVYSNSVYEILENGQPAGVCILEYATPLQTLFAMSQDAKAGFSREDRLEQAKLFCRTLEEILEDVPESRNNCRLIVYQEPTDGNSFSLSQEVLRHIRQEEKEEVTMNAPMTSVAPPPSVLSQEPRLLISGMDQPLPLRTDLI
Chain of IRF3 (endogenous, MLFs) (P70671 whole entry): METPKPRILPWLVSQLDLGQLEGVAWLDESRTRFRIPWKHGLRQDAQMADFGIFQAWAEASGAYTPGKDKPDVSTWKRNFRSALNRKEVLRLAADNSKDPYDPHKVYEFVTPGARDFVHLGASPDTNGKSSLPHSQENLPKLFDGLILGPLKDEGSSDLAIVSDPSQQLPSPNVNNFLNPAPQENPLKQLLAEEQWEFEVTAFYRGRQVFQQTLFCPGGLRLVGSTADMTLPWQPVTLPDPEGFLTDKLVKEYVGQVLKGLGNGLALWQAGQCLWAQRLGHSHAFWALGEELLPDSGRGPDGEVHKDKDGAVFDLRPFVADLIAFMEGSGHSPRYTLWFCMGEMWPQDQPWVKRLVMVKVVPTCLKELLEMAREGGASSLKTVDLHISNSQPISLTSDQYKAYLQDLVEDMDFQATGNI
Chain of IRF3-Y/F (Q14653 whole entry Y107F): as the sequence (Q14653 whole entry) above, with Y107F counted along it

Substance	tyrosine phosphorylation (IP with HA antibody, immunoblot) [1]	tyrosine phosphorylation (IP with HA antibody, immunoblot) [2]	tyrosine phosphorylation (IP with HA antibody, immunoblot) [3]	tyrosine phosphorylation (IP with HA antibody, immunoblot) [4]	tyrosine phosphorylation (IP with HA antibody, immunoblot) [5]	tyrosine phosphorylation (IP with HA antibody, immunoblot) [6]	SRC-mediated tyrosine phosphorylation (IP, immunoblot) (IRF3-Y/F)	SRC-mediated tyrosine phosphorylation (IP, immunoblot) (MITA-Y/F)	SRC-mediated tyrosine phosphorylation (IP, immunoblot) (VISA-6YF)	virus-induced tyrosine phosphorylation in SRC-deficient MLFs (IP, immunoblot) (IRF3 (endogenous, MLFs))	virus-induced tyrosine phosphorylation in SRC-deficient MLFs (IP, immunoblot) [7]	virus-induced tyrosine phosphorylation in SRC-deficient MLFs (IP, immunoblot) (RIG-I (endogenous, MLFs))	virus-induced tyrosine phosphorylation in SRC-deficient MLFs (IP, immunoblot) (TBK1 (endogenous, MLFs))	virus-induced tyrosine phosphorylation in SRC-deficient MLFs (IP, immunoblot) [8]
Flag-tagged SRC (overexpressed in HEK293 cells)	overexpression of SRC caused tyrosine phosphorylation of RIG-I, VISA, MITA, TBK1 and IRF3, but not cGAS	overexpression of SRC caused tyrosine phosphorylation of RIG-I, VISA, MITA, TBK1 and IRF3, but not cGAS	overexpression of SRC caused tyrosine phosphorylation of RIG-I, VISA, MITA, TBK1 and IRF3, but not cGAS	overexpression of SRC caused tyrosine phosphorylation of RIG-I, VISA, MITA, TBK1 and IRF3, but not cGAS	overexpression of SRC caused tyrosine phosphorylation of RIG-I, VISA, MITA, TBK1 and IRF3, but not cGAS	overexpression of SRC caused tyrosine phosphorylation of RIG-I, VISA, MITA, TBK1 and IRF3, but not cGAS	Mutation of Y107 of IRF3 to F (IRF3-Y/F) impaired SRC-mediated tyrosine phosphorylation of IRF3	Mutation of Y245 of MITA to F (MITA-Y/F) abolished SRC-mediated tyrosine phosphorylation of MITA	Simultaneous mutation of Y9, Y92, Y95, Y130, Y140 and Y460 of VISA to F (VISA-6YF) impaired SRC-mediated tyrosine phosphorylation	–	–	–	–	–
SRC (endogenous, MLFs)	–	–	–	–	–	–	–	–	–	SRC-deficiency impaired SeV- or HSV-1-induced tyrosine phosphorylation of endogenous RIG-I, VISA/MAVS, TBK1, IRF3 and MITA/STING	SRC-deficiency impaired SeV- or HSV-1-induced tyrosine phosphorylation of endogenous RIG-I, VISA/MAVS, TBK1, IRF3 and MITA/STING	SRC-deficiency impaired SeV- or HSV-1-induced tyrosine phosphorylation of endogenous RIG-I, VISA/MAVS, TBK1, IRF3 and MITA/STING	SRC-deficiency impaired SeV- or HSV-1-induced tyrosine phosphorylation of endogenous RIG-I, VISA/MAVS, TBK1, IRF3 and MITA/STING	SRC-deficiency impaired SeV- or HSV-1-induced tyrosine phosphorylation of endogenous RIG-I, VISA/MAVS, TBK1, IRF3 and MITA/STING

— patent publication US20210346401
